*1 amine or outer side, *2 acyl side, *3 side chain or, on linkers, in order; H or OH if unused. Side-chain parts run from the residue outwards. [ ]: non-standard residue; d: D form. The star is where a group is joined. C18 diacid = O=C(O)CCCCCCCCCCCCCCCCC(=O)*; C16 diacid = O=C(O)CCCCCCCCCCCCCCC(=O)*; γGlu = O=C(O)[C@H](CCC(=O)[*:2])N[*:1]; αMeK = C[C@](N)(CCCCN)C(=O)O; Nva = CCC[C@H](N)C(=O)O; Abu = CC[C@H](N)C(=O)O; Dap = NC[C@H](N)C(=O)O; AEEA = NCCOCCOCC(=O)O; Aib = CC(C)(N)C(=O)O
T1: CRF1R receptor (UniProt P34998 24-415, limits assumed)
T1 sequence (looked up): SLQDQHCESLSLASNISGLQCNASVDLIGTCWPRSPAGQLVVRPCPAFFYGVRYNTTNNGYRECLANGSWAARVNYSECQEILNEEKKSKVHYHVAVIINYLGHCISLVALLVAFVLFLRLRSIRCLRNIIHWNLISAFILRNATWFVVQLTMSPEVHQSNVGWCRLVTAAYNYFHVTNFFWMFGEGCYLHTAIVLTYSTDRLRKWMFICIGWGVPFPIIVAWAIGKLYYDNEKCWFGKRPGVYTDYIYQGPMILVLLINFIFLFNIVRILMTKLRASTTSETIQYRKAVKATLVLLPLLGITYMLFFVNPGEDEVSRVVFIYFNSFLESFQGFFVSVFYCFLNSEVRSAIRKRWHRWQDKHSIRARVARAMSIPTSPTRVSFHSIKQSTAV


How the values were obtained:
CRF1R receptor = target: T1, CRF1R receptor; assay: cell-based or functional assay
[1] = target: human corticotropin-releasing factor 2a (CRF2a receptor) (human), Q13324; assay: cell-based or functional assay
human corticotropin-releasing factor 2a (CRF2a receptor) (human), Q13324, sequence (Q13324 20-411): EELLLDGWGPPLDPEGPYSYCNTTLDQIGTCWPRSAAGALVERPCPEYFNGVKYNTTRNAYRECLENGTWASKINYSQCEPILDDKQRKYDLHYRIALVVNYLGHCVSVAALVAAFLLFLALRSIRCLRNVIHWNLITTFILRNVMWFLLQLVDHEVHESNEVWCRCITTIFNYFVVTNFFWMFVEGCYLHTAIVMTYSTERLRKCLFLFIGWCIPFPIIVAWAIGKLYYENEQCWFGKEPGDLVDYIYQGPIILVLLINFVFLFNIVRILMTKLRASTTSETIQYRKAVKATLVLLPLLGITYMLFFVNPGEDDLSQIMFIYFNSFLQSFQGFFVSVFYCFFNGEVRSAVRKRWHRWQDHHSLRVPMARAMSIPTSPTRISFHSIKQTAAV

| Binder | Emax (% I) (CRF1R receptor) [%] | EC50 [nM] (cAMP) [1] |
| --- | --- | --- |
| Ac-IVLSLD[dV]PIKLK([γGlu-C16 diacid])KILLEQEKQKKQREQAETN[Nva]QILAQV-NH2 (SMILES CCC[C@H](NC(=O)[C@H](CC(N)=O)NC(=O)[C@@H](NC(=O)[C@H](CCC(=O)O)NC(=O)[C@H](C)NC(=O)[C@H](CCC(N)=O)NC(=O)[C@H](CCC(=O)O)NC(=O)[C@H](CCCNC(=N)N)NC(=O)[C@H](CCC(N)=O)NC(=O)[C@H](CCCCN)NC(=O)[C@H](CCCCN)NC(=O)[C@H](CCC(N)=O)NC(=O)[C@H](CCCCN)NC(=O)[C@H](CCC(=O)O)NC(=O)[C@H](CCC(N)=O)NC(=O)[C@H](CCC(=O)O)NC(=O)[C@H](CC(C)C)NC(=O)[C@H](CC(C)C)NC(=O)[C@@H](NC(=O)[C@H](CCCCN)NC(=O)[C@H](CCCCNC(=O)CC[C@H](NC(=O)CCCCCCCCCCCCCCC(=O)O)C(=O)O)NC(=O)[C@H](CC(C)C)NC(=O)[C@H](CCCCN)NC(=O)[C@@H](NC(=O)[C@@H]1CCCN1C(=O)[C@H](NC(=O)[C@H](CC(=O)O)NC(=O)[C@H](CC(C)C)NC(=O)[C@H](CO)NC(=O)[C@H](CC(C)C)NC(=O)[C@@H](NC(=O)[C@@H](NC(C)=O)[C@@H](C)CC)C(C)C)C(C)C)[C@@H](C)CC)[C@@H](C)CC)[C@@H](C)O)C(=O)N[C@@H](CCC(N)=O)C(=O)N[C@H](C(=O)N[C@@H](CC(C)C)C(=O)N[C@@H](C)C(=O)N[C@@H](CCC(N)=O)C(=O)N[C@H](C(N)=O)C(C)C)[C@@H](C)CC) [SEQ ID NO 52] | 7 | 0.17 |
| Ac-IVLSLD[dV]PIKLK([γGlu-C16 diacid])KILLEQEKQKKQREQAETN[Abu]QILAQV-NH2 (SMILES CC[C@H](NC(=O)[C@H](CC(N)=O)NC(=O)[C@@H](NC(=O)[C@H](CCC(=O)O)NC(=O)[C@H](C)NC(=O)[C@H](CCC(N)=O)NC(=O)[C@H](CCC(=O)O)NC(=O)[C@H](CCCNC(=N)N)NC(=O)[C@H](CCC(N)=O)NC(=O)[C@H](CCCCN)NC(=O)[C@H](CCCCN)NC(=O)[C@H](CCC(N)=O)NC(=O)[C@H](CCCCN)NC(=O)[C@H](CCC(=O)O)NC(=O)[C@H](CCC(N)=O)NC(=O)[C@H](CCC(=O)O)NC(=O)[C@H](CC(C)C)NC(=O)[C@H](CC(C)C)NC(=O)[C@@H](NC(=O)[C@H](CCCCN)NC(=O)[C@H](CCCCNC(=O)CC[C@H](NC(=O)CCCCCCCCCCCCCCC(=O)O)C(=O)O)NC(=O)[C@H](CC(C)C)NC(=O)[C@H](CCCCN)NC(=O)[C@@H](NC(=O)[C@@H]1CCCN1C(=O)[C@H](NC(=O)[C@H](CC(=O)O)NC(=O)[C@H](CC(C)C)NC(=O)[C@H](CO)NC(=O)[C@H](CC(C)C)NC(=O)[C@@H](NC(=O)[C@@H](NC(C)=O)[C@@H](C)CC)C(C)C)C(C)C)[C@@H](C)CC)[C@@H](C)CC)[C@@H](C)O)C(=O)N[C@@H](CCC(N)=O)C(=O)N[C@H](C(=O)N[C@@H](CC(C)C)C(=O)N[C@@H](C)C(=O)N[C@@H](CCC(N)=O)C(=O)N[C@H](C(N)=O)C(C)C)[C@@H](C)CC) [SEQ ID NO 51] | 9 | 0.12 |
| Ac-IVLSLD[dV]PIKLK([γGlu-γGlu-C16 diacid])KILLEQEKQKKQREQAETN[Aib]QILAQV-NH2 (SMILES CC[C@H](C)[C@H](NC(C)=O)C(=O)N[C@H](C(=O)N[C@@H](CC(C)C)C(=O)N[C@@H](CO)C(=O)N[C@@H](CC(C)C)C(=O)N[C@@H](CC(=O)O)C(=O)N[C@@H](C(=O)N1CCC[C@H]1C(=O)N[C@H](C(=O)N[C@@H](CCCCN)C(=O)N[C@@H](CC(C)C)C(=O)N[C@@H](CCCCNC(=O)CC[C@H](NC(=O)CC[C@H](NC(=O)CCCCCCCCCCCCCCC(=O)O)C(=O)O)C(=O)O)C(=O)N[C@@H](CCCCN)C(=O)N[C@H](C(=O)N[C@@H](CC(C)C)C(=O)N[C@@H](CC(C)C)C(=O)N[C@@H](CCC(=O)O)C(=O)N[C@@H](CCC(N)=O)C(=O)N[C@@H](CCC(=O)O)C(=O)N[C@@H](CCCCN)C(=O)N[C@@H](CCC(N)=O)C(=O)N[C@@H](CCCCN)C(=O)N[C@@H](CCCCN)C(=O)N[C@@H](CCC(N)=O)C(=O)N[C@@H](CCCNC(=N)N)C(=O)N[C@@H](CCC(=O)O)C(=O)N[C@@H](CCC(N)=O)C(=O)N[C@@H](C)C(=O)N[C@@H](CCC(=O)O)C(=O)N[C@H](C(=O)N[C@@H](CC(N)=O)C(=O)NC(C)(C)C(=O)N[C@@H](CCC(N)=O)C(=O)N[C@H](C(=O)N[C@@H](CC(C)C)C(=O)N[C@@H](C)C(=O)N[C@@H](CCC(N)=O)C(=O)N[C@H](C(N)=O)C(C)C)[C@@H](C)CC)[C@@H](C)O)[C@@H](C)CC)[C@@H](C)CC)C(C)C)C(C)C) [SEQ ID NO 41] | 7 | 1.85 |
| Ac-IVLSLD[dV]PIKLK([γGlu-C16 diacid])KILLEQEKQKKQREQAETN[Dap]QILAQV-NH2 (SMILES CC[C@H](C)[C@H](NC(C)=O)C(=O)N[C@H](C(=O)N[C@@H](CC(C)C)C(=O)N[C@@H](CO)C(=O)N[C@@H](CC(C)C)C(=O)N[C@@H](CC(=O)O)C(=O)N[C@@H](C(=O)N1CCC[C@H]1C(=O)N[C@H](C(=O)N[C@@H](CCCCN)C(=O)N[C@@H](CC(C)C)C(=O)N[C@@H](CCCCNC(=O)CC[C@H](NC(=O)CCCCCCCCCCCCCCC(=O)O)C(=O)O)C(=O)N[C@@H](CCCCN)C(=O)N[C@H](C(=O)N[C@@H](CC(C)C)C(=O)N[C@@H](CC(C)C)C(=O)N[C@@H](CCC(=O)O)C(=O)N[C@@H](CCC(N)=O)C(=O)N[C@@H](CCC(=O)O)C(=O)N[C@@H](CCCCN)C(=O)N[C@@H](CCC(N)=O)C(=O)N[C@@H](CCCCN)C(=O)N[C@@H](CCCCN)C(=O)N[C@@H](CCC(N)=O)C(=O)N[C@@H](CCCNC(=N)N)C(=O)N[C@@H](CCC(=O)O)C(=O)N[C@@H](CCC(N)=O)C(=O)N[C@@H](C)C(=O)N[C@@H](CCC(=O)O)C(=O)N[C@H](C(=O)N[C@@H](CC(N)=O)C(=O)N[C@@H](CN)C(=O)N[C@@H](CCC(N)=O)C(=O)N[C@H](C(=O)N[C@@H](CC(C)C)C(=O)N[C@@H](C)C(=O)N[C@@H](CCC(N)=O)C(=O)N[C@H](C(N)=O)C(C)C)[C@@H](C)CC)[C@@H](C)O)[C@@H](C)CC)[C@@H](C)CC)C(C)C)C(C)C) [SEQ ID NO 55] | 5 | 0.42 |

Continued, values first:

| Emax (% I) (CRF1R receptor) [%] | EC50 [nM] (cAMP) [1] | Binder |
| --- | --- | --- |
| 4 | 1.14 | Ac-IVLSLD[dV]PIKLK([AEEA-AEEA-γGlu-C18 diacid])KILLEQEKQKKQREQAETNEQILAQV-NH2 (SMILES CC[C@H](C)[C@H](NC(C)=O)C(=O)N[C@H](C(=O)N[C@@H](CC(C)C)C(=O)N[C@@H](CO)C(=O)N[C@@H](CC(C)C)C(=O)N[C@@H](CC(=O)O)C(=O)N[C@@H](C(=O)N1CCC[C@H]1C(=O)N[C@H](C(=O)N[C@@H](CCCCN)C(=O)N[C@@H](CC(C)C)C(=O)N[C@@H](CCCCNC(=O)COCCOCCNC(=O)COCCOCCNC(=O)CC[C@H](NC(=O)CCCCCCCCCCCCCCCCC(=O)O)C(=O)O)C(=O)N[C@@H](CCCCN)C(=O)N[C@H](C(=O)N[C@@H](CC(C)C)C(=O)N[C@@H](CC(C)C)C(=O)N[C@@H](CCC(=O)O)C(=O)N[C@@H](CCC(N)=O)C(=O)N[C@@H](CCC(=O)O)C(=O)N[C@@H](CCCCN)C(=O)N[C@@H](CCC(N)=O)C(=O)N[C@@H](CCCCN)C(=O)N[C@@H](CCCCN)C(=O)N[C@@H](CCC(N)=O)C(=O)N[C@@H](CCCNC(=N)N)C(=O)N[C@@H](CCC(=O)O)C(=O)N[C@@H](CCC(N)=O)C(=O)N[C@@H](C)C(=O)N[C@@H](CCC(=O)O)C(=O)N[C@H](C(=O)N[C@@H](CC(N)=O)C(=O)N[C@@H](CCC(=O)O)C(=O)N[C@@H](CCC(N)=O)C(=O)N[C@H](C(=O)N[C@@H](CC(C)C)C(=O)N[C@@H](C)C(=O)N[C@@H](CCC(N)=O)C(=O)N[C@H](C(N)=O)C(C)C)[C@@H](C)CC)[C@@H](C)O)[C@@H](C)CC)[C@@H](C)CC)C(C)C)C(C)C) [SEQ ID NO 108] |
| 6 | 0.35 | Ac-IVLSLD[dV]PIKLK([AEEA-AEEA-γGlu-C18 diacid])KILLEQEKQKKQREQAETN[αMeK]QILAQV-NH2 (not fully specified) [SEQ ID NO 106] |
| 0 | 1.43 | Ac-IVLSLD[dV]PIKLK([AEEA-AEEA-γGlu-C18 diacid])KILLEQEKQKKQREQAETN[Dap]QILAQV-NH2 (SMILES CC[C@H](C)[C@H](NC(C)=O)C(=O)N[C@H](C(=O)N[C@@H](CC(C)C)C(=O)N[C@@H](CO)C(=O)N[C@@H](CC(C)C)C(=O)N[C@@H](CC(=O)O)C(=O)N[C@@H](C(=O)N1CCC[C@H]1C(=O)N[C@H](C(=O)N[C@@H](CCCCN)C(=O)N[C@@H](CC(C)C)C(=O)N[C@@H](CCCCNC(=O)COCCOCCNC(=O)COCCOCCNC(=O)CC[C@H](NC(=O)CCCCCCCCCCCCCCCCC(=O)O)C(=O)O)C(=O)N[C@@H](CCCCN)C(=O)N[C@H](C(=O)N[C@@H](CC(C)C)C(=O)N[C@@H](CC(C)C)C(=O)N[C@@H](CCC(=O)O)C(=O)N[C@@H](CCC(N)=O)C(=O)N[C@@H](CCC(=O)O)C(=O)N[C@@H](CCCCN)C(=O)N[C@@H](CCC(N)=O)C(=O)N[C@@H](CCCCN)C(=O)N[C@@H](CCCCN)C(=O)N[C@@H](CCC(N)=O)C(=O)N[C@@H](CCCNC(=N)N)C(=O)N[C@@H](CCC(=O)O)C(=O)N[C@@H](CCC(N)=O)C(=O)N[C@@H](C)C(=O)N[C@@H](CCC(=O)O)C(=O)N[C@H](C(=O)N[C@@H](CC(N)=O)C(=O)N[C@@H](CN)C(=O)N[C@@H](CCC(N)=O)C(=O)N[C@H](C(=O)N[C@@H](CC(C)C)C(=O)N[C@@H](C)C(=O)N[C@@H](CCC(N)=O)C(=O)N[C@H](C(N)=O)C(C)C)[C@@H](C)CC)[C@@H](C)O)[C@@H](C)CC)[C@@H](C)CC)C(C)C)C(C)C) [SEQ ID NO 107] |

Reference: patent publication US20260001928A1 (CORTERIA PHARMACEUTICALS, priority 2022, published 2026)
